Test results reported in IntAct's records for PubMed 22252131.

B1: E3 ubiquitin-protein ligase Hakai (Mus musculus), Q9JIY2 (parent)
chain: MDHTDNELQGTNSSGSLGGLDVRRRIPIKLISKQASKVKPAPRTQRTVSRMPAKAPQGDEEGFDYNEEQRYDCKGGELFGNQRRFPGHLFWDFKINILGEKDDTPVHFCDKCGLPIKVYGRMIPCKHVFCYDCAILHEKKGDKMCPGCSDPVQRIEQCTRGSLFMCSIVQGCKRTYLSQRDLQAHINHRHMRAGKPVTRASLENVHPPIAPPPTDIPDRFIMPPDKHHMSHIPPKQHIMMPPPPLQHVPHEHYNQPHEDIRAPPAELSMAPPPPRSVSQETFRISTRKHSNLITVPIQDDSSSGAREPPPPAPAPAHHHPEYQGQPVVSHPHHIMPPQQHYAPPPPPPPPISHPMPHPPQAAGTPHLVYSQAPPPPMTSAPPPITPPPGHIIAQMPPYMNHPPPGPPPPQHGGPPVTAPPPHHYNPNSLPQFTEDQGTLSPPFTQPGGMSPGIWPAPRGPPPPPRMQGPPSQTPLPGPHHPDQTRYRPYYQ
B2: Cadherin-1 (Homo sapiens), P12830 (parent)
chain: MGPWSRSLSALLLLLQVSSWLCQEPEPCHPGFDAESYTFTVPRRHLERGRVLGRVNFEDCTGRQRTAYFSLDTRFKVGTDGVITVKRPLRFHNPQIHFLVYAWDSTYRKFSTKVTLNTVGHHHRPPPHQASVSGIQAELLTFPNSSPGLRRQKRDWVIPPISCPENEKGPFPKNLVQIKSNKDKEGKVFYSITGQGADTPPVGVFIIERETGWLKVTEPLDRERIATYTLFSHAVSSNGNAVEDPMEILITVTDQNDNKPEFTQEVFKGSVMEGALPGTSVMEVTATDADDDVNTYNAAIAYTILSQDPELPDKNMFTINRNTGVISVVTTGLDRESFPTYTLVVQAADLQGEGLSTTATAVITVTDTNDNPPIFNPTTYKGQVPENEANVVITTLKVTDADAPNTPAWEAVYTILNDDGGQFVVTTNPVNNDGILKTAKGLDFEAKQQYILHVAVTNVVPFEVSLTTSTATVTVDVLDVNEAPIFVPPEKRVEVSEDFGVGQEITSYTAQEPDTFMEQKITYRIWRDTANWLEINPDTGAISTRAELDREDFEHVKNSTYTALIIATDNGSPVATGTGTLLLILSDVNDNAPIPEPRTIFFCERNPKPQVINIIDADLPPNTSPFTAELTHGASANWTIQYNDPTQESIILKPKMALEVGDYKINLKLMDNQNKDQVTTLEVSVCDCEGAAGVCRKAQPVEAGLQIPAILGILGGILALLILILLLLLFLRRRAVVKEPLLPPEDDTRDNVYYYDEEGGGEEDQDFDLSQLHRGLDARPEVTRNDVAPTLMSVPRYLPRPANPDEIGNFIDENLKAADTDPTAPPYDSLLVFDYEGSGSEAASLSSLNSSESDKDQDYDYLNEWGNRFKKLADMYGGGEDD

Variants of: B1
Details: with cadh1_human CDH1, P12830

| effect of a mutation on the interaction | Variant |
| --- | --- |
| disrupting interaction | MDHTDNELQGTNSSGSLGGLDVRRRIPIKLISKQASKVKPAPRTQRTVSRMPAKAPQGDEEGFDYNEEQRYDCKGGELFGNQRRFPGHLFWDFKINILGEKDDTPVHFCDKCGLPIKVYGRMIPCKHVFCYDCAILHEKKGDKMCPGCSDPVQRIEQCTRGSLFMCSIVQGCKRTYLSQRDLQAHINHAHMRAGKPVTRASLENVHPPIAPPPTDIPDRFIMPPDKHHMSHIPPKQHIMMPPPPLQHVPHEHYNQPHEDIRAPPAELSMAPPPPRSVSQETFRISTRKHSNLITVPIQDDSSSGAREPPPPAPAPAHHHPEYQGQPVVSHPHHIMPPQQHYAPPPPPPPPISHPMPHPPQAAGTPHLVYSQAPPPPMTSAPPPITPPPGHIIAQMPPYMNHPPPGPPPPQHGGPPVTAPPPHHYNPNSLPQFTEDQGTLSPPFTQPGGMSPGIWPAPRGPPPPPRMQGPPSQTPLPGPHHPDQTRYRPYYQ [R189A] |

Variants of: B1
Details: with src8_human CTTN

| effect of a mutation on the interaction | Variant |
| --- | --- |
| disrupting interaction | MDHTDNELQGTNSSGSLGGLDVRRRIPIKLISKQASKVKPAPRTQRTVSRMPAKAPQGDEEGFDYNEEQRYDCKGGELFGNQRRFPGHLFWDFKINILGEKDDTPVHFCDKCGLPIKVYGRMIPCKHVFCYDCAILHEKKGDKMCPGCSDPVQRIEQCTRGSLFMCSIVQGCKRTYLSQRDLQAHINHAHMRAGKPVTRASLENVHPPIAPPPTDIPDRFIMPPDKHHMSHIPPKQHIMMPPPPLQHVPHEHYNQPHEDIRAPPAELSMAPPPPRSVSQETFRISTRKHSNLITVPIQDDSSSGAREPPPPAPAPAHHHPEYQGQPVVSHPHHIMPPQQHYAPPPPPPPPISHPMPHPPQAAGTPHLVYSQAPPPPMTSAPPPITPPPGHIIAQMPPYMNHPPPGPPPPQHGGPPVTAPPPHHYNPNSLPQFTEDQGTLSPPFTQPGGMSPGIWPAPRGPPPPPRMQGPPSQTPLPGPHHPDQTRYRPYYQ [R189A] |

Variants of: B1
Details: with cadh1_human CDH1, P12830
Remark: another data set of the same source

| effect of a mutation on the interaction | Variant |
| --- | --- |
| disrupting interaction | MDHTDNELQGTNSSGSLGGLDVRRRIPIKLISKQASKVKPAPRTQRTVSRMPAKAPQGDEEGFDYNEEQRYDCKGGELFGNQRRFPGHLFWDFKINILGEKDDTPVHFCDKCGLPIKVYGRMIPCKHVFCYDCAILHEKKGDKMCPGCSDPVQRIEQCTRGSLFMCSIVQGCKRTYLSQRDLQAHINHRAMRAGKPVTRASLENVHPPIAPPPTDIPDRFIMPPDKHHMSHIPPKQHIMMPPPPLQHVPHEHYNQPHEDIRAPPAELSMAPPPPRSVSQETFRISTRKHSNLITVPIQDDSSSGAREPPPPAPAPAHHHPEYQGQPVVSHPHHIMPPQQHYAPPPPPPPPISHPMPHPPQAAGTPHLVYSQAPPPPMTSAPPPITPPPGHIIAQMPPYMNHPPPGPPPPQHGGPPVTAPPPHHYNPNSLPQFTEDQGTLSPPFTQPGGMSPGIWPAPRGPPPPPRMQGPPSQTPLPGPHHPDQTRYRPYYQ [H190A] |

Variants of: B1
Details: with src8_human CTTN
Remark: another data set of the same source

| effect of a mutation on the interaction | Variant |
| --- | --- |
| disrupting interaction | MDHTDNELQGTNSSGSLGGLDVRRRIPIKLISKQASKVKPAPRTQRTVSRMPAKAPQGDEEGFDYNEEQRYDCKGGELFGNQRRFPGHLFWDFKINILGEKDDTPVHFCDKCGLPIKVYGRMIPCKHVFCYDCAILHEKKGDKMCPGCSDPVQRIEQCTRGSLFMCSIVQGCKRTYLSQRDLQAHINHRAMRAGKPVTRASLENVHPPIAPPPTDIPDRFIMPPDKHHMSHIPPKQHIMMPPPPLQHVPHEHYNQPHEDIRAPPAELSMAPPPPRSVSQETFRISTRKHSNLITVPIQDDSSSGAREPPPPAPAPAHHHPEYQGQPVVSHPHHIMPPQQHYAPPPPPPPPISHPMPHPPQAAGTPHLVYSQAPPPPMTSAPPPITPPPGHIIAQMPPYMNHPPPGPPPPQHGGPPVTAPPPHHYNPNSLPQFTEDQGTLSPPFTQPGGMSPGIWPAPRGPPPPPRMQGPPSQTPLPGPHHPDQTRYRPYYQ [H190A] |

Variants of: B1
Details: with cadh1_human CDH1, P12830
Remark: another data set of the same source

| effect of a mutation on the interaction | Variant |
| --- | --- |
| disrupting interaction | MDHTDNELQGTNSSGSLGGLDVRRRIPIKLISKQASKVKPAPRTQRTVSRMPAKAPQGDEEGFDYNEEQRYDCKGGELFGNQRRFPGHLFWDFKINILGEKDDTPVHFCDKCGLPIKVYGRMIPCKAVFCYDCAILHEKKGDKMCPGCSDPVQRIEQCTRGSLFMCSIVQGCKRTYLSQRDLQAHINHRHMRAGKPVTRASLENVHPPIAPPPTDIPDRFIMPPDKHHMSHIPPKQHIMMPPPPLQHVPHEHYNQPHEDIRAPPAELSMAPPPPRSVSQETFRISTRKHSNLITVPIQDDSSSGAREPPPPAPAPAHHHPEYQGQPVVSHPHHIMPPQQHYAPPPPPPPPISHPMPHPPQAAGTPHLVYSQAPPPPMTSAPPPITPPPGHIIAQMPPYMNHPPPGPPPPQHGGPPVTAPPPHHYNPNSLPQFTEDQGTLSPPFTQPGGMSPGIWPAPRGPPPPPRMQGPPSQTPLPGPHHPDQTRYRPYYQ [H127A] |

Variants of: B1
Details: with src8_human CTTN
Remark: another data set of the same source

| effect of a mutation on the interaction | Variant |
| --- | --- |
| disrupting interaction | MDHTDNELQGTNSSGSLGGLDVRRRIPIKLISKQASKVKPAPRTQRTVSRMPAKAPQGDEEGFDYNEEQRYDCKGGELFGNQRRFPGHLFWDFKINILGEKDDTPVHFCDKCGLPIKVYGRMIPCKAVFCYDCAILHEKKGDKMCPGCSDPVQRIEQCTRGSLFMCSIVQGCKRTYLSQRDLQAHINHRHMRAGKPVTRASLENVHPPIAPPPTDIPDRFIMPPDKHHMSHIPPKQHIMMPPPPLQHVPHEHYNQPHEDIRAPPAELSMAPPPPRSVSQETFRISTRKHSNLITVPIQDDSSSGAREPPPPAPAPAHHHPEYQGQPVVSHPHHIMPPQQHYAPPPPPPPPISHPMPHPPQAAGTPHLVYSQAPPPPMTSAPPPITPPPGHIIAQMPPYMNHPPPGPPPPQHGGPPVTAPPPHHYNPNSLPQFTEDQGTLSPPFTQPGGMSPGIWPAPRGPPPPPRMQGPPSQTPLPGPHHPDQTRYRPYYQ [H127A] |

Variants of: B1
Details: with cadh1_human CDH1, P12830
Remark: another data set of the same source

| effect of a mutation on the interaction | Variant |
| --- | --- |
| disrupting interaction | MDHTDNELQGTNSSGSLGGLDVRRRIPIKLISKQASKVKPAPRTQRTVSRMPAKAPQGDEEGFDYNEEQRYDCKGGELFGNQRRFPGHLFWDFKINILGEKDDTPVHFCDKCGLPIKVYGRMIPCKHVFCYDCAILHEKKGDKMCPGCSDPVQRIEQCTRGSLFMCSIVQGCKRTALSQRDLQAHINHRHMRAGKPVTRASLENVHPPIAPPPTDIPDRFIMPPDKHHMSHIPPKQHIMMPPPPLQHVPHEHYNQPHEDIRAPPAELSMAPPPPRSVSQETFRISTRKHSNLITVPIQDDSSSGAREPPPPAPAPAHHHPEYQGQPVVSHPHHIMPPQQHYAPPPPPPPPISHPMPHPPQAAGTPHLVYSQAPPPPMTSAPPPITPPPGHIIAQMPPYMNHPPPGPPPPQHGGPPVTAPPPHHYNPNSLPQFTEDQGTLSPPFTQPGGMSPGIWPAPRGPPPPPRMQGPPSQTPLPGPHHPDQTRYRPYYQ [Y176A] |

Variants of: B1
Details: with src8_human CTTN
Remark: another data set of the same source

| effect of a mutation on the interaction | Variant |
| --- | --- |
| disrupting interaction | MDHTDNELQGTNSSGSLGGLDVRRRIPIKLISKQASKVKPAPRTQRTVSRMPAKAPQGDEEGFDYNEEQRYDCKGGELFGNQRRFPGHLFWDFKINILGEKDDTPVHFCDKCGLPIKVYGRMIPCKHVFCYDCAILHEKKGDKMCPGCSDPVQRIEQCTRGSLFMCSIVQGCKRTALSQRDLQAHINHRHMRAGKPVTRASLENVHPPIAPPPTDIPDRFIMPPDKHHMSHIPPKQHIMMPPPPLQHVPHEHYNQPHEDIRAPPAELSMAPPPPRSVSQETFRISTRKHSNLITVPIQDDSSSGAREPPPPAPAPAHHHPEYQGQPVVSHPHHIMPPQQHYAPPPPPPPPISHPMPHPPQAAGTPHLVYSQAPPPPMTSAPPPITPPPGHIIAQMPPYMNHPPPGPPPPQHGGPPVTAPPPHHYNPNSLPQFTEDQGTLSPPFTQPGGMSPGIWPAPRGPPPPPRMQGPPSQTPLPGPHHPDQTRYRPYYQ [Y176A] |

Variants of: B2
Details: with hakai_mouse Cbll1, Q9JIY2

| effect of a mutation on the interaction | Variant |
| --- | --- |
| disrupting interaction | Y753F |

Variants of: B2
Details: with hakai_mouse Cbll1, Q9JIY2
Remark: another data set of the same source

| effect of a mutation on the interaction | Variant |
| --- | --- |
| disrupting interaction | V752A |

Variants of: B2
Details: with hakai_mouse Cbll1, Q9JIY2
Remark: another data set of the same source

| effect of a mutation on the interaction | Variant |
| --- | --- |
| disrupting interaction | D750A |

Variants of: B2
Details: with hakai_mouse Cbll1, Q9JIY2
Remark: another data set of the same source

| effect of a mutation on the interaction | Variant |
| --- | --- |
| disrupting interaction | Y754F |

Variants of: B2
Details: with hakai_mouse Cbll1, Q9JIY2
Remark: another data set of the same source

| effect of a mutation on the interaction | Variant |
| --- | --- |
| disrupting interaction | Y755F |

Variants of: B2
Details: with hakai_mouse Cbll1, Q9JIY2
Remark: another data set of the same source

| effect of a mutation on the interaction | Variant |
| --- | --- |
| disrupting interaction | D756A |

Variants of: B2
Details: with hakai_mouse Cbll1, Q9JIY2
Remark: another data set of the same source

| effect of a mutation on the interaction | Variant |
| --- | --- |
| disrupting interaction | E757A |
